Experimental data taken from patent publication US20260258472A1.

Key:
[1] = biological target: Human SOD1 in sporadic ALS (sALS) spinal cord homogenate (human) (UniProt P00441); experiment: immunoprecipitation with antibody-linked magnetic beads; immunoblot of the flow-through of sALS patient 4 spinal cord homogenate
[2] = biological target: Human SOD1 in sporadic ALS (sALS) spinal cord homogenate (human) (UniProt P00441); experiment: cell-based or functional assay

Chain of UniProt P00441 (P00441 2-154 limits assumed): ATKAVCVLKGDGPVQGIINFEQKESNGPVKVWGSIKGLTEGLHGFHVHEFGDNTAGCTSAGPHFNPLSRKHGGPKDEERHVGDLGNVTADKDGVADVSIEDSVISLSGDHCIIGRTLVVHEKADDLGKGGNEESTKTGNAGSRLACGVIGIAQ

percent SOD1 remaining in flow-through compared to input [1] [%]	50% ThT (RFU), SOD1 RT-QuIC after immunodepletion [2] [RFU]	Lag phase (hours), SOD1 RT-QuIC after immunodepletion [2] [h]	Substance
28	27600	57.6	Isotype control antibody mIgG2a (ThermoFisher #MA110418)
21	21900	62.4	Anti-human SOD1 antibody C4F6 (misfolded SOD1; MediMabs #MM-0070-2-P)
23	27300	62.7	Mouse-anti-SOD1 antibody, clone O98B10 (pan-SOD1; BioLegend #850702)
75	32100	70.2	Isotype control antibody mIgG2b (ThermoFisher #MA110427)
